Assay results reported in publication PMC7817050 (PLoS Pathogens, 2021).

Columns and labels:
[1] = biological target: the molecule itself; assay: cryo-EM structure; native, full-length gB without antibody, in Amphipol 8-35, TBS pH7.4; 300kV Titan Krios; C3 symmetry imposed
[2] = biological target: T1, native, full-length VZV gB purified from VZV infected MeWo cells (varicella-zoster virus (parental Oka …, UniProt Q4JR05, N-linked glycosylation (sites in S4 Table))); assay: cryo-EM structure; Fab fragments added in molar excess to native, full-length gB in TBS pH7.4 with Amphipol 8-35, overnight at +4°C; complexes purified on Superose-6 in TBS pH7.4; 200kV F20 microscope; conditions: both partners purified
T1 construct: VZV glycoprotein B (ORF31), parental Oka strain, residues up to 931; 71-residue signal peptide; native gB is cleaved by furin at 491RSRR494 into two fragments; residues 115-736 resolved in the cryo-EM structure; Held in Amphipol 8-35; also called glycoprotein B; native, full-length gB; not shown: V5, C-terminal, cleaved

[3] = biological target: T2, VZV gB wild type expressed from pCAGGS-gB in CHO-DSP1 cells (varicella-zoster virus, UniProt Q4JR05); assay: western blot; reducing, denaturing SDS-PAGE of anti-V5 immunoprecipitates from transfected CHO-DSP1 cells, blot probed with mAb 93k; conditions: one partner purified
T2 construct: VZV glycoprotein B (ORF31) expressed from pCAGGS-gB; detected by an antiserum to residues 833-846 of the cytoplasmic region; also called WT gB; gB-WT; source: CHO-DSP1, transfected (pCAGGS-gB), in lysate; also on fixed transfected cells

[4] = biological target: the molecule itself; assay: crystal structure; gB ectodomain; 0.1 M Na acetate pH 4.6, 20% PEG 400, 6% ethylene glycol, room temperature vapor diffusion

B1: native, full-length VZV gB purified from VZV infected MeWo cells (natural protein)
chain: VSPSSFYESLQVEPTQSEDITRSAHLGDGDEIREAIHKSQDAETKPTFYVCPPPTGSTIVRLEPPRTCPDYHLGKNFTEGIAVVYKENIAAYKFKATVYYKDVIVSTAWAGSSYTQITNRYADRVPIPVSEITDTIDKFGKCSSKATYVRNNHKVEAFNEDKNPQDMPLIASKYNSVGSKAWHTTNDTYMVAGTPGTYRTGTSVNCIIEEVEARSIFPYDSFGLSTGDIIYMSPFFGLRDGAYREHSNYAMDRFHQFEGYRQRDLDTRALLEPAARNFLVTPHLTVGWNWKPKRTEVCSLVKWREVEDVVRDEYAHNFRFTMKTLSTTFISETNEFNLNQIHLSQCVKEEARAIINRIYTTRYNSSHVRTGDIQTYLARGGFVVVFQPLLSNSLARLYLQELVRENTNHSPQKHPTRNTRSRRSVPVELRANRTITTTSSVEFAMLQFTYDHIQEHVNEMLARISSSWCQLQNRERALWSGLFPINPSALASTILDQRVKARILGDVISVSNCPELGSDTRIILQNSMRVSGSTTRCYSRPLISIVSLNGSGTVEGQLGTDNELIMSRDLLEPCVANHKRYFLFGHHYVYYEDYRYVREIAVHDVGMISTYVDLNLTLLKDREFMPLQVYTRDELRDTGLLDYSEIQRRNQMHSLRFYDIDKVVQYDSGTAIMQGMAQFFQGLGTAGQAVGHVVLGATGALLSTVHGFTTFLSNPFGALAVGLLVLAGLVAAFFAYRYVLKLKTSPMKALYPLTTKGLKQLPEGMDPFAEKPNATDTPIEEIGDSQNTEPSVNSGFDPDKFREAQEMIKYMTLVSAAERQESKARKKNKTSALLTSRLTGLALRNRRGYSRVRTENVTGV
modifications: N-linked glycosylation (sites in S4 Table)
notes: VZV glycoprotein B (ORF31), parental Oka strain, residues up to 931; 71-residue signal peptide; native gB is cleaved by furin at 491RSRR494 into two fragments; residues 115-736 resolved in the cryo-EM structure; Held in Amphipol 8-35; also called glycoprotein B; native, full-length gB; not shown: V5, C-terminal, cleaved
B1 was tested, and the “stoichiometry N” value [1] was 3.

B2: Fab fragment of the neutralizing human mAb 93k (Fab, V domains shown)
VH: QVQLVQSGAEVKKPGSSVKVSCKASGGTFSNFAISWVRQAPGQGLEWMGRIMPLFVTSTYAQKFQGRVTISADASTSTAYMELSSLRSDDTAMYYCARDITAPGAAPTPLNFYGMDVWGQGTTVTVSS
VL: DIQMTQSPSTLSASVGDRVTITCRASQTISTWLAWYQQTPRKAPKLMIYKASILENGVPSRFSGSGSGTEFTLTISSLQPEDFATYYCQQYKSYPWTFGQGTKVEI
notes: map of gB-93k deposited here as EMD-22519; I53 of the VL chain is named; also called 93k Fab
B2: binds [2].

B3: human neutralizing monoclonal antibody 93k (antibody, V domains shown)
VH: QVQLVQSGAEVKKPGSSVKVSCKASGGTFSNFAISWVRQAPGQGLEWMGRIMPLFVTSTYAQKFQGRVTISADASTSTAYMELSSLRSDDTAMYYCARDITAPGAAPTPLNFYGMDVWGQGTTVTVSS
VL: DIQMTQSPSTLSASVGDRVTITCRASQTISTWLAWYQQTPRKAPKLMIYKASILENGVPSRFSGSGSGTEFTLTISSLQPEDFATYYCQQYKSYPWTFGQGTKVEI
notes: variable part as the heavy chain of m12; as the light chain of m12; Human IgG (detected with anti-human IgG); also called mAb 93k
B3: binds [3].

B4: VZV gB ectodomain used for X-ray crystallography (domain or fragment, varicella-zoster virus (Oka strain), UniProt Q4JR05 72-736, looked up)
chain: VSPSSFYESLQVEPTQSEDITRSAHLGDGDEIREAIHKSQDAETKPTFYVCPPPTGSTIVRLEPPRTCPDYHLGKNFTEGIAVVYKENIAAYKFKATVYYKDVIVSTAGAGSSGTQITNRYADRVPIPVSEITDTIDKFGKCSSKATYVRNNHKVEAFNEDKNPQDMPLIASKYNSVGSKAWHTTNDTYMVAGTPGTYRTGTSVNCIIEEVEARSIFPYDSFGLSTGDIIYMSPFFGLRDGAYREHSNYAMDRFHQFEGYRQRDLDTRALLEPAARNFLVTPHLTVGWNWKPKRTEVCSLVKWREVEDVVRDEYAHNFRFTMKTLSTTFISETNEFNLNQIHLSQCVKEEARAIINRIYTTRYNSSHVRTGDIQTYLARGGFVVVFQPLLSNSLARLYLQELVRENTNHSPQKHPTRNTGSGGSVPVELRANRTITTTSSVEFAMLQFTYDHIQEHVNEMLARISSSWCQLQNRERALWSGLFPINPSALASTILDQRVKARILGDVISVSNCPELGSDTRIILQNSMRVSGSTTRCYSRPLISIVSLNGSGTVEGQLGTDNELIMSRDLLEPCVANHKRYFLFGHHYVYYEDYRYVREIAVHDVGMISTYVDLNLTLLKDREFMPLQVYTRDELRDTGLLDYSEIQRRNQMHSLRFYDIDKVVQ
modifications: N-linked glycosylation (sites in S4 Table)
notes: VZV glycoprotein B (ORF31), Oka strain, codon-modified; residues 72-736, without the 71 amino acid signal peptide; residues 115-736 resolved in the crystal; also called truncated gB; truncated VZV gB; source: HEK293 GnTI- cells, transiently transfected (pCMV-III), purified (Ni-NTA, ion-exchange, Superdex 200)
B4 was tested, and the “stoichiometry N” value [4] was 3.
